Test [1] addresses T1, 4-1BB antigen (human, UniProt Q07011 24-186, limits assumed).
T1 construct: also called human 4-1BB; h4-1BB
Description: BIAcore SPR as in Example 5; antibody captured, 4-1BB antigen in flow. The method, then:
(§1) The binding affinity of the mouse monoclonal antibody 4B4-1-1 and humanized antibody were determined and compared using the BIAcore™ assay (Pharmacia). Rabbit anti-mouse IgG (Sigma) and goat anti-human IgG (Fc-specific) were each diluted in 10 mM acetic acid buffer, and coupled to a Dextran CM-5 sensor chip (Pharmacia). 1 M ethanolamine was added to stop the reaction. Mouse monoclonal antibody 4B4-1-1 and humanized antibody Hz4B4-1 were each diluted to a concentration of 50 μg/ml in HEPES buffer (HBS). The coupled antibodies were bound at 100 resonance units (R.U.), and 25 μg/ml of 4-1BB antigen was applied at a flow rate of 10 μl/min. and bound for 5 minutes. HBS buffer (Pharmacia) was applied for 5 minutes at the same flow rate so that dissociation would occur. The association rate and dissociation rates and corresponding rate constants were determined by using BIA evaluation software. The results are shown in Table 2 as $kon$ and $koff$ values; K_d is also shown.
(§2) The antigen binding affinity of the purified Hz4B4-2 humanized antibody was measured as in Example 5 using the BIAcore™ assay (Pharmacia).

In test [2] the target is T1, 4-1BB antigen. Description: BIAcore SPR; antibody captured by anti-mouse IgG on a CM-5 chip, 4-1BB antigen 25 µg/ml in flow. The method, then:
as §1

For test [3], the target named is T1, 4-1BB antigen. Description: BIAcore SPR; ratio of Kd against mouse monoclonal antibody 4B4-1-1. The method, then:
as §1, §2
On the technique in general: SPR reads the build-up and loss of mass on a sensor chip optically.

Test [4] deals with T1, 4-1BB antigen. The test is described as follows: BIAcore SPR; antibody captured by anti-human IgG (Fc-specific) on a CM-5 chip, 4-1BB antigen 25 µg/ml in flow. The method, then: as §1
The target in test [5] is T1, 4-1BB antigen. The test is described as follows: summary of the BIAcore results; ratio against Hz4B4-1.
Test [6] deals with T1, 4-1BB antigen. The test is described as follows: summary of the BIAcore results; ratio against mouse monoclonal antibody 4B4-1-1.

Changes are numbered by the printed parent chain.

Usually Kd stands for a measure of binding affinity in units of concentration. A word on the kon: it is a measure of how fast the partners come together. A low value points to slower complex formation. In general, koff refers to a measure of how fast the partners let go of each other.

B1: mouse monoclonal antibody 4B4-1-1 (antibody, V domains shown)
VH: QVQLQQPGAELVKPGASVKLSCKASGYTFSSYWMHWVKQRPGQVLEWIGEINPGNGHTNYNEKFKSKATLTVDKSSSTAYMQLSSLTSEDSAVYYCARSFTTARAFAYWGQGTLVTVSA
VL: DIVMTQSQATQSVTPGDRVSLSCRASQTISDYLHWYQQKSHESPRLLIKYASQSISGIPSRFSGSGSGSDFTLSINSVEPEDVGVYYCQDGHSFPPTFGGGTKLEIK
notes: Whole mouse monoclonal antibody from a hybridoma; also called 4B4 MAb; 4B4 monoclonal antibody
Consider B1, for which, in the test with 4-1BB antigen [1], the Kd was 133 pM and the kon was 11600 M⁻¹ s⁻¹. In the test with 4-1BB antigen [2], this molecule showed a Kd of 133 pM, an off-rate (koff) of 1.54e-06 s⁻¹ and an on-rate (kon) of 11600 M⁻¹ s⁻¹.

B2: humanized antibody Hz4B4-1 (antibody, V domains shown)
VH: B1 VH with Q5V, P7S, L11V, R40A, S76A, Q82E, T87R, S91T, A119S
VL: B1 VL with Q8P, T14S, D17E, S20T, S40P, H41G, E42Q, S74T, N76S, V83F
notes: also called Hz4B4k-1 (light chain variable region); Hz4B4h-1 (heavy chain variable region)
B2: in the test with 4-1BB antigen [3], the “fold greater antigen binding affinity (Kd) than mouse antibody 4B4-1-1” value is approximately 1.5 fold and the “fold greater antigen binding affinity (Kd) than mouse monoclonal antibody 4B4-1-1” value amounted to 1.5 fold. Besides, in the test with 4-1BB antigen [1], the Kd worked out at 87.2 pM, the off-rate (koff) was 4.36e-06 s⁻¹ and the kon was 50000 M⁻¹ s⁻¹. Also, in the test with 4-1BB antigen [4], the Kd turned out to be 87.2 pM, the dissociation rate constant (koff) came to 4.36e-06 s⁻¹ and the kon is 50000 M⁻¹ s⁻¹.

B3: humanized antibody Hz4B4-2 (antibody, V domains shown)
VH: QVQLVQSGAEVKKPGASVKVSCKASGYTFSSYWMHWVRQAPGQRLEWMGEINPGNGHTNYSQKFQGRVTITVDKSASTAYMELSSLRSEDTAVYYCARSFTTARAFAYWGQGTLVTVSS
VL: DIVMTQSPPTLSLSPGERVTLSCRASQSISDYLHWYQQKPGQSPRLLIKYASQSISGIPARFSGSGSGTDFTLTISSLEPEDFAVYYCQDGHSFPPTFGGGTKVEIK
notes: Whole antibody made in CHO-K1 cells (SB500 clone); The variable regions were put into the Hz4B4-1 expression vectors, so it has the same human kappa and human heavy chain constant regions; also called Hz4B4k-2 (light chain); Hz4B4h-2 (heavy chain)
Consider B3, for which, in the test with 4-1BB antigen [5], the “fold greater antigen binding affinity than Hz4B4-1” value came out at 5 fold. For the same molecule, the “fold greater antigen binding affinity than mouse monoclonal antibody 4B4-1-1” value in the test with 4-1BB antigen [3] was determined as 7.3 fold. In the test with 4-1BB antigen [6], the “fold higher antigen binding affinity than the original mouse monoclonal antibody” value came out at 7 fold.

These data come from patent US6458934 (LG CHEMICAL, dated 2002).
